Measured values as given in the DeepSol protein solubility set.

Experiment: soluble on expression in E. coli; label from the status in PepcDB or PDB records

Sequence	soluble on expression in E. coli
MSNRFKFFAAIREYNPEGEVFLRIIGTGSNNNLTYRIMESRLNEVGISLGSFLSAVVPMGEPIRDFVPEERNFKVIIDGIVAMVENIEGNLEKNEEGVLVFSTEDFGLVRALDQKLSPGQYQITVRATKFSERKIFKNMNYCAEAQKIAPLVTATESESIFKRVASFFQKSPEENSLESTSKQANEEKDSSVQDLSMAELIEILPNLDQKSINQPTPAPRSMVGSVGITRTMNALVCDVIHQEKECIHFLWICEIQQISMFASKSHYLSPGKFFEGLFEKKETNWECIRFVGEKKELLKGITDGDKFKVTLTNEQGFPVFTVENLYAKLIAFEGKFVFHNKTFGNAIIGCYRPPGDYKITIKLLPIPFTTPTGKFICFEAIHFESADVLSSSNTNTTENKKKVTEKVKERGIRRPQDPKSKGIQRAVVIRVIEKGNSTDYIVWNLDSKMECIFRSAKHELERGHFFSGKFVKKSDGSLMCTNYVKQIKGFVEGGLDEHENIYFTVPIQNFQAARGNRKYNCAFSEYFGEVLEGKAENTKLSSNCNGKTVNIEWKKIGASGSDEYVWIVSKIF	not soluble
MGSDKIHHHHHHMKVSSKPSLTWEILTSRADRPRQEVFPFNTGRCEYFYSARYALAAALDALKLSPQQSILMPSYNCWVEVEPAVRSGAKIDWYRVKTDFSIDEDDLLARIRPETAAIFVIHYLGFPQRLENIHRICTERGIVLIEDCAHALLSNDGDVPLGLTGDMAIFSIRKTVPIPDGGCLLINNPAFSVNRPRRVRPNLFATYFVVSEMLARGSTTEPKRVNQMAYSCNFAFARLARMGLRGIHKIFQDHGDYLVYPSGNHFNEQVKHWMMSDVSSAILRGTEFQRIKERRRANFLHLLDKLIMNDRITLPILSLPEGVSPLFFPVIVQDRDRVYRQLKDQGLSGHDWWGDFHPAVPWDKYPDAVYLKTNVFGFPVHQDLSRESLGIMLAEFSQCL	not soluble
MGRNDSEFPSDEELKKLAGKIKGAAIRANTKILKSYDPDTYGNYLDQLDGIRSQAEWLGTAFDDFLKPSPWDFDDMLKALDEIASDLGQAVGETEIKNGIVQGRIDTTKQFLGEGGWKGALADSFKMDYLEPIGSHIAANQGAVTLVTHDGLQAMRDIYGKARENLKDLGEKAVTAFEQADGISASDLKTLLTVLSAAFGLGTAVLSAFAPAAAAGAGIASALVSGGIAVGSDKVGEDEESELAADYPDKVEENFKNALEKLKEQITTMEDELIKVLQKGTSDIASIVWGEKLDRLNGFSALFGMGNQSLLAPKVPDLSMVAFGDDPGKLKDGLVQVSG	not soluble
VSIKKSSGLNFDNTAIAINAGKGLEFDTNTSESPDINPIKTKIGSGIDYNENGAMITKLGAGLSFDNSGAITIGNKNDDKGSGYIPEAPRDGQAYVRKDGEWVLLSTFL	soluble
MISLFSPCHLSAALLISALSIVPTNAAPSPVSSPFTVNATVLTGCVLGGGATDSSNFGSINFGNITSLATAINATSGLNAGTITIQCNGNPSVTLALNSGANMTGNISAGRHLLNSSTGEYLLYQIYQNSPRTLIWGDGSNGGATQVIATDGTLQQVILYAQLFASNTQPTAGVYLDTLLVTVTY	not soluble
MSLVMWLMAHSEKLEDLLEGKPVVIIEDGELAWSKLNNSNMTEFEFFMELRLRGVEQLGQVRLAILETNGQISVYFFEDDKVKPGLLILPSDCTQRYKVVPESADYACIRCSEIIHMNAGEKQLCPRCANPEWTKASRAKRVTEGHHHHHH	soluble
MNATPEKADDLIVVGKIFSVHGVRGEVKVYSFTDPIENLLDYPRWTLRHEGKVKQVELVSGRGSQKGLVVKLKGLDDRDEARLLSGYEICIPRSLLPNLAADEYYWYQLVGLKVINQDEQLFGKVDHLLETGANDVMVVKPCAGSLDDRERLLPYTEQCVLAIDLEAGVMRVEWDADFLEHHHHHH	soluble
MPTVSLGRFQKEDGINVPDWIDVVRRPSGGRALLHHREITYCLAVPKKINFGKLSVLEFHRLVHSLIRDALVEAGLHAELSSKRRGNTALCFDAPSRYEIVINGVKVVGSAQFRTAESIVEHGSIVLKQDIDL	soluble
GPGSMQAPSEDDVARKEALKRRVEEHMLWKMTFFQSRPPPPFIPKCRRRPEPIANAPVHSFYKRALEIVSAEKEHMSSFCSSASPPTMTKTEPPEGDGAKSKQDVWKHKMMLEMERRNPYTDINIRTDPRSTVVVSSLHPKSLEEDIRLFGEQFGRVVSVRLICDHNGKSRRYGFVQFGLEAEARKAVAHSRKRRLHGHAVVMEMERGRLDRDFLPKRLAEAKRQIEGSSSLCSDKRQRMEGSVKCPPAVAAGRSLPIPVSDTRDEVDAFLDDIMNLT	not soluble
MRTIERTTIFKRDFKREMKGQHRHLLDTDLRKVIAALANDQPLEIRYRDHALTGNWSNYRDCHIRPDLVLIYRLIGQDRLVLVRLGSHSQLDL	not soluble
AALDDLIDTLGECEDTNKDDPPYTGPVVLDPMDSTYLEALGIKEGTIPPEYRKLLEKNEAITGPLPDSPKPMGIDHAIDALSSDFT	soluble
MRMVDIISKKRDGKALSTEEIQFFIDGYTNGEIPDYQASALAMAIFFQDMNDQERADLTMAMVGSGDTIDLSEIEGIKVDKHSTGGVGDTTTLVLAPLVAAVGVPVAKMSGRGLGHTGGTIDKLESIEGFHIELDKKDFIDLVNRDKVAVIGQSGNLTPADKKMYALRDVTGTVNSIPLIASSIMSKKIAAGADAIVLDVKTGAGAFMKTDEDAENLAHAMVRIGNNVGRNTMAVISDMSQPLGEAIGNALEVKEAIDTLKGQGPEDLTELVLVLGSQMVVLAKQAETLDEARAKLIEVIENGAALEKFKTFLSNQGGDASIVDHPEKLPQAKYQIEVPAKTSGFVSQIVADEIGIAAMILGAGRATKEDEINLAVGLMLRKKVGDAVKEGESLVTIFADQEDVENVKAKIYENIQISDHAIAPTLVHKVITE	not soluble
MSLYKGYLIDLDGTIYKGKDRIPAGETFVHELQKRDIPYLFVTNNTTRTPESVKEMLAQNFNIDTPLSTVYTATLATIDYMNDLGLEKTVYVVGEAGLKEAIKAAGYVEDKEKPAYVVVGLDWQVDYEKFATATLAIQKGAHFIGTNPDLNIPTERGLLPGAGSLITLLEVATRVKPVYIGKPNAIIMDKAVEHLGLEREELIMVGDNYLTDIRAGIDNGIPTLLVTTGFTKAEEVAGLPIAPTHVVSSLAEWDFDENEGHHHHHH	soluble
MQPKLIILRGNSGSGKTTIANALHQCLKEQSLLISQDVVRREMLRVKDETGNLSIALLKQLVAFGYQECQYVIVEGIFQKAIYHSFFQEIIHLFEGNVQVYYFDISFEETLKRHSQRNKNQEFGVVEMKRWWLPEDYLGFPGEQRLSEQLSEKQIIRQILADIQ	not soluble
MPMNTSKQSNTVKQLITSLDNFEPSRLTIKDFQEGKGVGPKMAFLRYNHPSLGEDTSLMLQTPWITLTSGGIPRYNEQYHKNDKDRAYLRLPLEEGTDFFNKITALDEQFSSDEFKKEKFGKLYKKYSMYPCVKITEQEEGDTRDPLPPSLKLRFSLVWNEEDKDACEINTQVFTSKMEDGKRTRTPVPVSSLKDMESLVRLGAKLRLIVRPVSAWMNPKKEYGIKWKIQKMEVEPSTAGNALMKEFYETDAFIDSDDEEDVELPPSATGKKTSTKTTKEDDEDEDDDDDDDDDDVGEKSEDSDEASDEESDEESDEDSEEDSPDIPVRKSKGKGKSKGLDL	not soluble
MVDAGLVLAAGFSRRFRGLLGVHKVAAGVRGYPLLCYPVTSLALAGVDRVFVVASQFNLNVVELVLGHCPFRVSGVLISSLSTLGNGFSLVEGLREAGLRGSRCLAVSMADHVYPPSIARRLIEAGCNTLGVDSRPRYIEVGEATHVSLEPGAGVRLGKDVEGCCVDIGIHTIEAGIASIGCIDLPPRGEASVSQLITCAARKGYTFKLVDVDGGPWMEVDSPEDLERLLQGDGLEVLEAVRSEWGFLEHHHHHH	not soluble
DNVKYVSSVQRDKELLHAKYGKDIDKAEDVAKEYPSLESIVAKHPDIFVAGWNYGFSEEKNLTPDALKDQGIDSYILSESCRQEGSEKRGLYDPWEAVKMDISNIGKITSHADTADSVVKDIDSRLETLKKAPQADKAPTAFVFDSGTDTVFTSGKFGAPQAIIEAAGGRNGAENVEDTWTTVSWENLAASKPDVFVFVDYPGQEFEEKIAALRSNPATKNLPAVKENRFINLPYAMWTSGPLNIDAAEQMRKGFEKFGLVPSSEIKPSLELPASVPGQNYYK	not soluble
MANSNTQRMGTGSAILPARRRRATPRRLPKRAAHHYTPRVFSAIEPENSPMLKRSLALAAGIALSLSAALAHAETLKELKVSAIPDEAPTELLRKFKPLGAYLEKQLGMPVKFVPVADYAGVVEALAADRLDMAWLGGFTFVQARLKTGNAIPLVQREQDQQFTSKFITADPQVKSLQDLKGKTFAFGSVSSTSGSLMPRYFMQKDGIVPEQFFSRVAYSGAHDATVAWVQAGKVDAGVLNASVWQKLVDSGKVDTAKVKVFATTPTYYDYNWTVRGNLDPALAEKIKQAFLALDPAKPADKEILDLQAASRFIETNPDNYKGIEESARAAGLLK	not soluble
MVEVESDSVAERDRSSFLAGHDAIRLAKSCVDSPPERWYAALYQVYADLTKLRCWSNVEVVYSDSATFPTGLLGPLFEEDSMVQELHSAQCILGSERACFHVRCCIVGSPPSGRAINALSPQSETRTEERIITSRREPEVVIAVPMHAMLKLSNLDQALRMSSHIEGIVKNRHVADSSASTHSTDRQAGSRKSSVIFGFVDEDTTTAYYRIREGACESNDRREFSTDDIASCLAQERT	not soluble
MSEMTPREIVSELDQHIIGQADAKRAVAIALRNRWRRMQLQEPLRHEVTPKNILMIGPTGVGKTEIARRLAKLANAPFIKVEATKFTEVGYVGKEVDSIIRDLTDSAMKLVRQQEIAKNRARAEDVAEERILDALLPPAKNQWGEVENHDSHSSTRQAFRKKLREGQLDDKEIEIDVSAGVSMGVEIMAPPGMEEMTNQLQSLFQNLGSDKTKKRKMKIKDALKALIDDEAAKLINPEELKQKAIDAVEQNGIVFIDEIDKICKKGEYSGADVSREGVQRDLLPLVEGSTVSTKHGMVKTDHILFIASGAFQVARPSDLIPELQGRLPIRVELTALSAADFERILTEPHASLTEQYKALMATEGVNIAFTTDAVKKIAEAAFRVNEKTENIGARRLHTVMERLMDKISFSASDMNGQTVNIDAAYVADALGEVVENEDLSRFIL	soluble
MGSDKIHHHHHHMAQRVGPTRRGVDGTPVEPLSIKHPNAAGIDIGGASHYVAVPPDRVGKGEPAVREFGPHTEDLVAVANWLCACRIDTVALESTGVYWIALYELLQARGFEVWLVDAKSVRHVKARKSDVLDCQWLQQLHSFGLLSQAHRPDEQVCALREMSRLRDITIDERARHTQRMQKALTQMNVQLTNVITDITGETGMNIIRAIVAGGATAWPSRS	not soluble
MGSDKIHHHHHHMARNAKLDRLLTLVKALGESAEGLTLDEMAEVIGANRRTAERLRDLILVHFDLEEGVDDRHKRFRIPGTLPSPFIQPNVAEIAALKSLADTAHKAGSAQAPLLESLVGKVQAGLRREVKSRMAPDLEPLVRLQRHHVPAGPMIEHAPETVAQVQGAMMAGMCLEFDYLADGAAEPKWRRVIPVGLIHGPATYLIGKIPGRDLEPAPYRLDRIIAARVSNQPGAAGEDWDLDQWMSASFGIWREEGYEIVLRVAHESAERARKWRFHPQQMIEQDGEELIVRFHSGGLREIAEHLFTWGGEVRIEGPEELREMMRERLSAAGRAVV	not soluble
MGHHHHHHSHMSWWDYGYQIAGMANRTTLVDNNTWNNSHIALVGKAMSSNETAAYKIMRTLDVDYVLVIFGGVIGYSGDDINKFLWMVRIAEGEHPKDIRESDYFTPQGEFRVDKAGSPTLLNCLMYKMSYYRFGEMQLDFRTPPGFDRTRNAEIGNKDIKFKHLEEAFTSEHWLVRIYKVKAPDNRETLDHKPRVTNIFPKQKYLSKKTTKRKRGYIKNKLVFKKGKKIFKKTV	not soluble
